{"source": "paper PMC10758017", "key": {"[1]": {"biological_target": "T1, TGFβRI/TGFβRII receptor complex (mouse (endogenous in MFB-F11)) (UniProt Q64729)", "T1 sequence 1": "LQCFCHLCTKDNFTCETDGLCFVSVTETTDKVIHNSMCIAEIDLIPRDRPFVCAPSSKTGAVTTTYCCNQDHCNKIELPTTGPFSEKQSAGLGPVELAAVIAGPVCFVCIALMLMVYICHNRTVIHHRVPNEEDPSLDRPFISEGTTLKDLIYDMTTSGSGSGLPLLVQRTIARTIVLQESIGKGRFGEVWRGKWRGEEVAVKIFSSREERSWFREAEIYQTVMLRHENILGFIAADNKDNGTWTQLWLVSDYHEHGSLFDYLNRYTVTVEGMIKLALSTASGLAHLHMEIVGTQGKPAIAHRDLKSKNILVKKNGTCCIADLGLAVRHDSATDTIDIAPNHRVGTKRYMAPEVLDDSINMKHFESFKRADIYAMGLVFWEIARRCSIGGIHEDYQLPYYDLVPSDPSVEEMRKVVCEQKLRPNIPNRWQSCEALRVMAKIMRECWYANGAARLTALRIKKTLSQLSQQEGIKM", "T1 sequence 2": "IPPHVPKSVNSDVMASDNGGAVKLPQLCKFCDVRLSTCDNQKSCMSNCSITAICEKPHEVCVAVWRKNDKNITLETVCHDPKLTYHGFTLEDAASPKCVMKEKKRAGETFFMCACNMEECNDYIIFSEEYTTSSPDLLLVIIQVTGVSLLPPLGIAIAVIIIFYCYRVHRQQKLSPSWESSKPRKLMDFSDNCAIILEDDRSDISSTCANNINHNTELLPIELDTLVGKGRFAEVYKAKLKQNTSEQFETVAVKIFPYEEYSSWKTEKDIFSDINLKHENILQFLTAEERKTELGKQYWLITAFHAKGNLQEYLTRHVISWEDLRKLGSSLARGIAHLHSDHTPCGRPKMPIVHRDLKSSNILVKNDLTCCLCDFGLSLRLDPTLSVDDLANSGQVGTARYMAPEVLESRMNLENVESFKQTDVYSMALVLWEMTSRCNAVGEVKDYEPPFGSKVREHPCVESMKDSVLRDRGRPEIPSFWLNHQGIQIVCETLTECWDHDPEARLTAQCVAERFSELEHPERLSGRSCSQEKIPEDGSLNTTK"}, "[2]": {"biological_target": "T1, TGFβRI/TGFβRII receptor complex (mouse (endogenous in MFB-F11))", "remark": "listed apart in the source"}, "[3]": {"biological_target": "T1, TGFβRI/TGFβRII receptor complex (mouse (endogenous in MFB-F11))", "remark": "listed apart in the source"}, "[4]": {"biological_target": "T1, TGFβRI/TGFβRII receptor complex (mouse (endogenous in MFB-F11))", "remark": "listed apart in the source"}}, "data": [{"binder": "AYCFRNVQD", "note": "[peptide inhibitor 1.5 …]", "values": [{"measurement": "Smad2 mRNA, ddCt (qRT-PCR), IP at 50 μM against the reference inhibitor SB-525334 at 50 nM", "setting": "[1]", "value": -2.4}, {"measurement": "Smad3 mRNA, ddCt (qRT-PCR), IP at 50 μM against the reference inhibitor SB-525334 at 50 nM", "setting": "[2]", "value": 0.2}, {"measurement": "Smad4 mRNA, ddCt (qRT-PCR), IP at 50 μM against the reference inhibitor SB-525334 at 50 nM", "setting": "[3]", "value": 0.9}, {"measurement": "Jun N-terminal kinase (JNK1) mRNA, ddCt (qRT-PCR), IP at 50 μM against the reference inhibitor SB-525334 at 50 nM", "setting": "[4]", "value": -0.1}]}, {"binder": "DAAYCFRNV", "note": "[peptide inhibitor 1.3 …]", "values": [{"measurement": "Smad2 mRNA, ddCt (qRT-PCR), IP at 50 μM against the reference inhibitor SB-525334 at 50 nM", "setting": "[1]", "value": -10.5}, {"measurement": "Smad3 mRNA, ddCt (qRT-PCR), IP at 50 μM against the reference inhibitor SB-525334 at 50 nM", "setting": "[2]", "value": -9.5}, {"measurement": "Smad4 mRNA, ddCt (qRT-PCR), IP at 50 μM against the reference inhibitor SB-525334 at 50 nM", "setting": "[3]", "value": -9.3}, {"measurement": "Jun N-terminal kinase (JNK1) mRNA, ddCt (qRT-PCR), IP at 50 μM against the reference inhibitor SB-525334 at 50 nM", "setting": "[4]", "value": -13.4}]}, {"binder": "LDAAYCFRN", "note": "[peptide inhibitor 1.2 …]", "values": [{"measurement": "Smad2 mRNA, ddCt (qRT-PCR), IP at 50 μM against the reference inhibitor SB-525334 at 50 nM", "setting": "[1]", "value": -12.2}, {"measurement": "Smad3 mRNA, ddCt (qRT-PCR), IP at 50 μM against the reference inhibitor SB-525334 at 50 nM", "setting": "[2]", "value": -11.9}, {"measurement": "Smad4 mRNA, ddCt (qRT-PCR), IP at 50 μM against the reference inhibitor SB-525334 at 50 nM", "setting": "[3]", "value": -11.3}, {"measurement": "Jun N-terminal kinase (JNK1) mRNA, ddCt (qRT-PCR), IP at 50 μM against the reference inhibitor SB-525334 at 50 nM", "setting": "[4]", "value": -15.3}]}]}
